Numbering of substitutions follows the chain as printed.
T1: wild-type human CCR7 (pcDNA3.1 Neo-hCCR7, 20100121357) (human, UniProt P32248 25-378)
T1 construct: Expressed on transfected 293T, CHO AM1/D or HEK293T cells; also called huCCR7; CCR7 receptor
T1 sequence: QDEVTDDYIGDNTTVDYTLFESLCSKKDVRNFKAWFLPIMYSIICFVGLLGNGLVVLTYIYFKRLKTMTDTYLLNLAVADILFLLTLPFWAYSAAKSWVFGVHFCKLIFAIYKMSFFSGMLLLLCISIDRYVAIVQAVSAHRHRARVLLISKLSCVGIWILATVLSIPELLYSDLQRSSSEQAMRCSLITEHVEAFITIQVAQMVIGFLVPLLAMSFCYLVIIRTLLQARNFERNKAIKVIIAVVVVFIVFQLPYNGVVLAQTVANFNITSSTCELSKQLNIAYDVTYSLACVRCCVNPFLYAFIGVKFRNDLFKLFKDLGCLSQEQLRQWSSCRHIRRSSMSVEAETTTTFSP

B1: antibody 6B4.1 (antibody, V domains shown)
VH: QVQLVESGGGVVQPGRSLRLSCAASGFTFSSYGMHWVRQAPGKGLEWVAVIWYDGSKKYYADSVKGRFTISRDNSKNTLYLQMNRLRAEDTAVYYCARDGGIAVFLQDNWFDPWGQGTLVTVSS
VL: SYELTQPPSVSVSPGQRARITCSGDKLGDKYASWYQQKPGQSPLLVIYQDSKRPSGIPERFSGSNSGNTATLTISGTQAMDEADYYCQAWGSSTVIFGGGTKLTVLG
notes: Human antibody from XenoMouse hybridoma; Light = 2 and heavy = 42 is inferred from the order of the listing (light chains first)
B2: antibody 6B5.1 (antibody, human IgG2, lambda, V domains shown)
VH: B1 VH with S30R, Q107E
VL: B1 VL with R19S, S51G
notes: Human antibody from XenoMouse hybridoma; Light = 18 and heavy = 50 is inferred from the order of the listing

Key:
[1] = biological target: T1, wild-type human CCR7 (pcDNA3.1 …); assay: hybridoma screening on cells expressing human CCR7
[2] = biological target: T1, wild-type human CCR7 (pcDNA3.1 …); assay: flow cytometry on transfected 293T cells, PE secondary antibody, geo mean

Binder	binding result [1]	binding result [2]
B1	binds	–
B2	–	binds
